Measured values from IntAct's records for PubMed 17064696.

B1: Sphingosine kinase 1 (Homo sapiens), Q9NYA1 (parent)
chain: MDPAGGPRGVLPRPCRVLVLLNPRGGKGKALQLFRSHVQPLLAEAEISFTLMLTERRNHARELVRSEELGRWDALVVMSGDGLMHEVVNGLMERPDWETAIQKPLCSLPAGSGNALAASLNHYAGYEQVTNEDLLTNCTLLLCRRLLSPMNLLSLHTASGLRLFSVLSLAWGFIADVDLESEKYRRLGEMRFTLGTFLRLAALRTYRGRLAYLPVGRVGSKTPASPVVVQQGPVDAHLVPLEEPVPSHWTVVPDEDFVLVLALLHSHLGSEMFAAPMGRCAAGVMHLFYVRAGVSRAMLLRLFLAMEKGRHMEYECPYLVYVPVVAFRLEPKDGKGVFAVDGELMVSEAVQGQVHPNYFWMVSGCVEPPPSWKPQQMPPPEEPL

Variants of: B1
Details: with catb_human CTSB

effect of a mutation on the interaction | Variant
decreasing interaction | N121E

Variants of: B1
Details: with catb_human CTSB
Remark: another data set of the same source

effect of a mutation on the interaction | Variant
decreasing interaction | H122Y

Variants of: B1
Details: with catb_human CTSB
Remark: another data set of the same source

effect of a mutation on the interaction | Variant
decreasing interaction | Y123A
